US20250197473A1
Where two headings read alike, the source gives them in different places.

Tests used:
Experiment in all cases: ELISA
PD-1 [1] = target: PD-1
CTLA-4 [2] = target: CTLA-4
PD-1 [3] = target: PD-1; remark: listed apart in the source
CTLA-4 [4] = target: CTLA-4; remark: listed apart in the source

PD-1 Relative Binding (PD-1 [1]) | CLTA-4 Relative Binding (CTLA-4 [2]) | PD-1 Relative Binding (PD-1 [3]) | CLTA-4 Relative Binding (CTLA-4 [4]) | Substance
0 | 0.236 | 0.004 | 3.26 | B7.1 domain only plus Fc construct (Fc fusion)
0 | 0.548 |  |  | B7.1/PD-L2 composition (a B7.1 domain linked to a PD-L2 domain plus an Fc domain) (Fc fusion)
 |  | 1.77 | 0.008 | PD-L2 domain only plus Fc construct (Fc fusion)
0.088 | 0.266 | 3.37 | 1.65 | PD-L2/B7.1 Dual Checkpoint (dual checkpoint inhibitor composition comprising, from the N-terminus to the C-terminus, a PD-L2 domain linked to a B7.1 domain plus a Fc domain) (Fc fusion)
